B1: Pistol ribozyme (parent)
chain: GGGUCGUUGUUCCAUAAUCGCGUGGAUAUGGCACGCAAGUUUCUACCGGGCACCGUAAAUGUCCGACUGGAGCCGUUCGGGCGGCUAUAAACAGACCUCAGGCCCGAAGCGUGGCGGCACCUGCCGCCGGUGGUAAAAAAGAUCGGAAGAGCACACGUCU

Variants of: B1
Test: aptazyme ON/OFF ratio, guanine; higher = stronger switching; co-transcriptional cleavage with and without guanine

Variant | aptazyme ON/OFF ratio
GGGUCGGAACUCCAUAAUCGCGUGGAUAUGGCACGCAAGUUUCUACCGGGCACCGUAAAUGUCCGACUGGAGCCGUUCGGGCGGCUAUAAACAGACCUCAGGCCCGAAGCGUGGCGGCACCUGCCGCCGGUGGUAAAAAAGAUCGGAAGAGCACACGUCU [U7G U8A G9A U10C] | 2.73
GGGUCGGAAAGCGAUAAUCGCGUGGAUAUGGCACGCAAGUUUCUACCGGGCACCGUAAAUGUCCGACUGGAGCCGUUCGGGCGGCUAUAAACAGACCUCAGGCCCGAAGCGUGGCGGCACCUGCCGCCGGUGGUAAAAAAGAUCGGAAGAGCACACGUCU [U7G U8A G9A U10A U11G C13G] | 1.07
GGGUCGGAAAGCAAUAAUCGCGUGGAUAUGGCACGCAAGUUUCUACCGGGCACCGUAAAUGUCCGACUGGAGCCGUUCGGGCGGCUAUAAACAGACCUCAGGCCCGAAGCGUGGCGGCACCUGCCGCCGGUGGUAAAAAAGAUCGGAAGAGCACACGUCU [U7G U8A G9A U10A U11G C13A] | 1.14
GGGUCGGAAAGCUAUAAUCGCGUGGAUAUGGCACGCAAGUUUCUACCGGGCACCGUAAAUGUCCGACUGGAGCCGUUCGGGCGGCUAUAAACAGACCUCAGGCCCGAAGCGUGGCGGCACCUGCCGCCGGUGGUAAAAAAGAUCGGAAGAGCACACGUCU [U7G U8A G9A U10A U11G C13U] | 1.16
GGGUCGGAAAGUUAUAAUCGCGUGGAUAUGGCACGCAAGUUUCUACCGGGCACCGUAAAUGUCCGACUGGAGCCGUUCGGGCGGCUAUAAACAGACCUCAGGCCCGAAGCGUGGCGGCACCUGCCGCCGGUGGUAAAAAAGAUCGGAAGAGCACACGUCU [U7G U8A G9A U10A U11G C12U C13U] | 1.15
GGGUCGGAAAGUAAUAAUCGCGUGGAUAUGGCACGCAAGUUUCUACCGGGCACCGUAAAUGUCCGACUGGAGCCGUUCGGGCGGCUAUAAACAGACCUCAGGCCCGAAGCGUGGCGGCACCUGCCGCCGGUGGUAAAAAAGAUCGGAAGAGCACACGUCU [U7G U8A G9A U10A U11G C12U C13A] | 1.07
GGGUCGGAAAGUGAUAAUCGCGUGGAUAUGGCACGCAAGUUUCUACCGGGCACCGUAAAUGUCCGACUGGAGCCGUUCGGGCGGCUAUAAACAGACCUCAGGCCCGAAGCGUGGCGGCACCUGCCGCCGGUGGUAAAAAAGAUCGGAAGAGCACACGUCU [U7G U8A G9A U10A U11G C12U C13G] | 1.24
GGGUCGGAAACCGAUAAUCGCGUGGAUAUGGCACGCAAGUUUCUACCGGGCACCGUAAAUGUCCGACUGGAGCCGUUCGGGCGGCUAUAAACAGACCUCAGGCCCGAAGCGUGGCGGCACCUGCCGCCGGUGGUAAAAAAGAUCGGAAGAGCACACGUCU [U7G U8A G9A U10A U11C C13G] | 1.08
GGGUCGGAAACCUAUAAUCGCGUGGAUAUGGCACGCAAGUUUCUACCGGGCACCGUAAAUGUCCGACUGGAGCCGUUCGGGCGGCUAUAAACAGACCUCAGGCCCGAAGCGUGGCGGCACCUGCCGCCGGUGGUAAAAAAGAUCGGAAGAGCACACGUCU [U7G U8A G9A U10A U11C C13U] | 1.05
GGGUCGGAAACCAAUAAUCGCGUGGAUAUGGCACGCAAGUUUCUACCGGGCACCGUAAAUGUCCGACUGGAGCCGUUCGGGCGGCUAUAAACAGACCUCAGGCCCGAAGCGUGGCGGCACCUGCCGCCGGUGGUAAAAAAGAUCGGAAGAGCACACGUCU [U7G U8A G9A U10A U11C C13A] | 1.1
GGGUCGGAAACUUAUAAUCGCGUGGAUAUGGCACGCAAGUUUCUACCGGGCACCGUAAAUGUCCGACUGGAGCCGUUCGGGCGGCUAUAAACAGACCUCAGGCCCGAAGCGUGGCGGCACCUGCCGCCGGUGGUAAAAAAGAUCGGAAGAGCACACGUCU [U7G U8A G9A U10A U11C C12U C13U] | 1.11
GGGUCGGAAACUGAUAAUCGCGUGGAUAUGGCACGCAAGUUUCUACCGGGCACCGUAAAUGUCCGACUGGAGCCGUUCGGGCGGCUAUAAACAGACCUCAGGCCCGAAGCGUGGCGGCACCUGCCGCCGGUGGUAAAAAAGAUCGGAAGAGCACACGUCU [U7G U8A G9A U10A U11C C12U C13G] | 1.1
GGGUCGGAAACUAAUAAUCGCGUGGAUAUGGCACGCAAGUUUCUACCGGGCACCGUAAAUGUCCGACUGGAGCCGUUCGGGCGGCUAUAAACAGACCUCAGGCCCGAAGCGUGGCGGCACCUGCCGCCGGUGGUAAAAAAGAUCGGAAGAGCACACGUCU [U7G U8A G9A U10A U11C C12U C13A] | 1.07
GGGUCGGAAAGACAUAAUCGCGUGGAUAUGGCACGCAAGUUUCUACCGGGCACCGUAAAUGUCCGACUGGAGCCGUUCGGGCGGCUAUAAACAGACCUCAGGCCCGAAGCGUGGCGGCACCUGCCGCCGGUGGUAAAAAAGAUCGGAAGAGCACACGUCU [U7G U8A G9A U10A U11G C12A] | 1.06
GGGUCGGAAAGUCAUAAUCGCGUGGAUAUGGCACGCAAGUUUCUACCGGGCACCGUAAAUGUCCGACUGGAGCCGUUCGGGCGGCUAUAAACAGACCUCAGGCCCGAAGCGUGGCGGCACCUGCCGCCGGUGGUAAAAAAGAUCGGAAGAGCACACGUCU [U7G U8A G9A U10A U11G C12U] | 1.65
GGGUCGGAAAGGCAUAAUCGCGUGGAUAUGGCACGCAAGUUUCUACCGGGCACCGUAAAUGUCCGACUGGAGCCGUUCGGGCGGCUAUAAACAGACCUCAGGCCCGAAGCGUGGCGGCACCUGCCGCCGGUGGUAAAAAAGAUCGGAAGAGCACACGUCU [U7G U8A G9A U10A U11G C12G] | 1.2
GGGUCGGAAACCCAUAAUCGCGUGGAUAUGGCACGCAAGUUUCUACCGGGCACCGUAAAUGUCCGACUGGAGCCGUUCGGGCGGCUAUAAACAGACCUCAGGCCCGAAGCGUGGCGGCACCUGCCGCCGGUGGUAAAAAAGAUCGGAAGAGCACACGUCU [U7G U8A G9A U10A U11C] | 1.03
GGGUCGGAAAGCCAUAAUCGCGUGGAUAUGGCACGCAAGUUUCUACCGGGCACCGUAAAUGUCCGACUGGAGCCGUUCGGGCGGCUAUAAACAGACCUCAGGCCCGAAGCGUGGCGGCACCUGCCGCCGGUGGUAAAAAAGAUCGGAAGAGCACACGUCU [U7G U8A G9A U10A U11G] | 1.28

— the RNAGym collection of RNA variant scans (doi:10.1021/acssynbio.7b00057)
